± gives the uncertainty stated by the source.
Assay: self-splicing fitness, log relative to wild type (ln ratio); higher = more splicing; Tetrahymena group I intron in knt gene, E. coli kanamycin selection, DiMSum; sequences stand for … in CUCUCU…GGAGGGAAAAGUUAUCAGGCAUGCACCUGGUAGCUAGUCUUUAAACCAAUAGAUUGCAUCGGUUUAAAAGGCAAGACCGUCAAAUUGCGGGAAAGGGGUCAACAGCCGUUCAGUACCAAGUCUCAGGGGAAACUUUGAGAUGGCCUUGCAAAGGGUAUGGUAAUAAGCUGACGGACAUGGUCCUAACCACGCAGCCAAGUCCUAAGUCAACAGAUCUUCUGUUGAUAUGGAUGCAGUUCACAGACUAAAUGUCGGUCGGGGAAGAUGUAUUCUUCUCAUAAGAUAUAGUCGGACCUCUCCUUAAUGGGAGCUAGCGGAUGAAGUGAUGCAACACUGGAGCCGCUGGGAACUAAUUUGUAUGCGAAAGUAUAUUGAUUAGUUUUGGAGUACUCGUGGUCG
Method in brief: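 Colonies from six replicate transformations of E. coli BL21(DE3) were pooled and amplicon-sequenced on an Illumina HiSeq 2500. The library placed an intron with all eight P1ex-region nucleotides randomised inside the knt kanamycin-resistance gene on pET-22b(+), and cells grew overnight at 37°C or 30°C on LB agar with or without 25 μg/mL kanamycin (plus 100 μg/mL carbenicillin, 50 μM IPTG, 0.2% rhamnose). Fitness is the DiMSum error-weighted combination of wild-type-normalised replicate fold changes, kanamycin versus none.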

## GCGCAGCAAUAUUACGGACG
30 °C
  self-splicing fitness (ln): -2.17 ± 0.13
37 °C
  self-splicing fitness (ln): -0.91 ± 0.15

## GCGCAGCAAUAUUACGGCCC
30 °C
  self-splicing fitness (ln): -1.21 ± 0.14
37 °C
  self-splicing fitness (ln): 0.349 ± 0.24

## GCGCAGCAAUAUUACGGGAA
30 °C
  self-splicing fitness (ln): -1.92 ± 0.086
37 °C
  self-splicing fitness (ln): -0.883 ± 0.066

## GCGCAGCAAUAUUACGGGAG
30 °C
  self-splicing fitness (ln): -3.14 ± 0.18
37 °C
  self-splicing fitness (ln): -1.39 ± 0.13

## GCGCAGCAAUAUUACGGUAG
30 °C
  self-splicing fitness (ln): -3.4 ± 0.15
37 °C
  self-splicing fitness (ln): -1.88 ± 0.14

## GCGCAGCAAUAUUACGGUCU
30 °C
  self-splicing fitness (ln): -0.494 ± 0.075
37 °C
  self-splicing fitness (ln): 0.0551 ± 0.095

## GCGCAGCAAUAUUACGGUGU
30 °C
  self-splicing fitness (ln): -2.83 ± 0.14
37 °C
  self-splicing fitness (ln): -2.47 ± 0.17

## GCGCAGCAAUAUUACGUAAG
30 °C
  self-splicing fitness (ln): -0.982 ± 0.066
37 °C
  self-splicing fitness (ln): -0.943 ± 0.1

## GCGCAGCAAUAUUACGUAGU
30 °C
  self-splicing fitness (ln): -0.438 ± 0.06
37 °C
  self-splicing fitness (ln): 0.18 ± 0.076

## GCGCAGCAAUAUUACGUAUU
30 °C
  self-splicing fitness (ln): -0.596 ± 0.081
37 °C
  self-splicing fitness (ln): -0.709 ± 0.099

## GCGCAGCAAUAUUACGUGUA
30 °C
  self-splicing fitness (ln): -0.699 ± 0.071
37 °C
  self-splicing fitness (ln): -0.0774 ± 0.077

## GCGCAGCAAUAUUACGUGUU
30 °C
  self-splicing fitness (ln): -1.06 ± 0.075
37 °C
  self-splicing fitness (ln): -0.857 ± 0.092

## GCGGAGCAAUAUUACGAAGC
30 °C
  self-splicing fitness (ln): -2.45 ± 0.23
37 °C
  self-splicing fitness (ln): -2.13 ± 0.4

## GCGGAGCAAUAUUACGAGUA
30 °C
  self-splicing fitness (ln): -3.21 ± 0.21
37 °C
  self-splicing fitness (ln): -1.82 ± 0.15

## GCGGAGCAAUAUUACGCCUU
37 °C
  self-splicing fitness (ln): -2.17 ± 0.49

## GCGGAGCAAUAUUACGCGGA
30 °C
  self-splicing fitness (ln): -2.07 ± 0.33

## GCGGAGCAAUAUUACGCUCC
37 °C
  self-splicing fitness (ln): -0.469 ± 0.39

## GCGGAGCAAUAUUACGGAAU
30 °C
  self-splicing fitness (ln): -2.29 ± 0.21
37 °C
  self-splicing fitness (ln): -3.42 ± 0.35

## GCGGAGCAAUAUUACGGAUA
30 °C
  self-splicing fitness (ln): -2.53 ± 0.33
37 °C
  self-splicing fitness (ln): -1.26 ± 0.25

## GCGGAGCAAUAUUACGGGAA
30 °C
  self-splicing fitness (ln): -2.13 ± 0.27
37 °C
  self-splicing fitness (ln): -2.23 ± 0.35

## GCGGAGCAAUAUUACGGGAG
30 °C
  self-splicing fitness (ln): -2.36 ± 0.42
37 °C
  self-splicing fitness (ln): -0.916 ± 0.48

## GCGGAGCAAUAUUACGGGCA
37 °C
  self-splicing fitness (ln): -1.1 ± 0.47

## GCGGAGCAAUAUUACGGGUA
30 °C
  self-splicing fitness (ln): -4.43 ± 0.42
37 °C
  self-splicing fitness (ln): -1.72 ± 0.2

## GCGGAGCAAUAUUACGGUCG
30 °C
  self-splicing fitness (ln): -3.61 ± 0.26
37 °C
  self-splicing fitness (ln): -2.41 ± 0.21

## GCGGAGCAAUAUUACGUAUU
30 °C
  self-splicing fitness (ln): -3.85 ± 0.25
37 °C
  self-splicing fitness (ln): -2.48 ± 0.41

## GCGUAGCAAUAUUACGAAGA
30 °C
  self-splicing fitness (ln): -1.89 ± 0.21
37 °C
  self-splicing fitness (ln): -1.51 ± 0.24

## GCGUAGCAAUAUUACGAAGC
30 °C
  self-splicing fitness (ln): -3.48 ± 0.3
37 °C
  self-splicing fitness (ln): -1.67 ± 0.47

## GCGUAGCAAUAUUACGAAUG
30 °C
  self-splicing fitness (ln): -1.32 ± 0.11
37 °C
  self-splicing fitness (ln): -0.603 ± 0.13

## GCGUAGCAAUAUUACGACAG
30 °C
  self-splicing fitness (ln): -2.66 ± 0.48
37 °C
  self-splicing fitness (ln): -0.456 ± 0.44

## GCGUAGCAAUAUUACGACUU
30 °C
  self-splicing fitness (ln): -0.421 ± 0.11
37 °C
  self-splicing fitness (ln): 0.154 ± 0.15

## GCGUAGCAAUAUUACGAGAG
30 °C
  self-splicing fitness (ln): -3.3 ± 0.28
37 °C
  self-splicing fitness (ln): -3.27 ± 0.33

## GCGUAGCAAUAUUACGAGGU
30 °C
  self-splicing fitness (ln): -2.81 ± 0.36
37 °C
  self-splicing fitness (ln): -2.62 ± 0.36

## GCGUAGCAAUAUUACGCAGU
30 °C
  self-splicing fitness (ln): -4.05 ± 0.34
37 °C
  self-splicing fitness (ln): -2.28 ± 0.25

## GCGUAGCAAUAUUACGCAUU
30 °C
  self-splicing fitness (ln): -2.88 ± 0.2
37 °C
  self-splicing fitness (ln): -2.58 ± 0.27

## GCGUAGCAAUAUUACGCCUG
30 °C
  self-splicing fitness (ln): -4.08 ± 0.42
37 °C
  self-splicing fitness (ln): -3.13 ± 0.37

## GCGUAGCAAUAUUACGCGCG
30 °C
  self-splicing fitness (ln): -3.2 ± 0.26
37 °C
  self-splicing fitness (ln): -2.42 ± 0.31

## GCGUAGCAAUAUUACGCUAU
30 °C
  self-splicing fitness (ln): -4.42 ± 0.42
37 °C
  self-splicing fitness (ln): -2.46 ± 0.45

## GCGUAGCAAUAUUACGCUCU
30 °C
  self-splicing fitness (ln): -3 ± 0.46
37 °C
  self-splicing fitness (ln): -1.59 ± 0.27

## GCGUAGCAAUAUUACGGAAA
30 °C
  self-splicing fitness (ln): -3.29 ± 0.37
37 °C
  self-splicing fitness (ln): -0.0155 ± 0.18

Reference: the supplement of paper PMC7877785
